From article PMC12409746

Biological target: GST (glutathione S-transferase) released from the GST-P fusion protein (S. japonicum)
Test: SEC

“GST (glutathione S-transferase) released from the GST-P fusion protein (natural protein)” gave a stoichiometry N of 2.
